Reference: patent US6406886

Key:
[1] = molecular target: Ran; test: cell-based or functional assay
[2] = molecular target: human Ha-Ras (1st to 189th residues) (UniProt P01112)
[3] = molecular target: human Rap1A (Glu63) (1st to 184th residues) (UniProt P62834)
[4] = molecular target: human RhoA (1st to 193 residues) GST fusion protein (UniProt P61586)
[5] = molecular target: yeast Rsr1 (1st to 272nd residues) (UniProt P13856)
Sequence of yeast Rsr1 (1st to 272nd residues) (P13856 whole entry): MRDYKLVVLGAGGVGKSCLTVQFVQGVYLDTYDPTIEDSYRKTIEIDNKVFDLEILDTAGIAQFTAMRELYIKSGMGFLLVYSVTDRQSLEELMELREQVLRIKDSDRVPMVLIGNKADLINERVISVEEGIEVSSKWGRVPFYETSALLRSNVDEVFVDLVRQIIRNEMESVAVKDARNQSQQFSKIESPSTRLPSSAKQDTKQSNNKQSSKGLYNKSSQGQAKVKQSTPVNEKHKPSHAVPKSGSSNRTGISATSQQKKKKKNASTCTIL

Sequence of fusion protein of human GAP3 (75th to 663rd amino acid residues) and GST (chain, as listed by the source): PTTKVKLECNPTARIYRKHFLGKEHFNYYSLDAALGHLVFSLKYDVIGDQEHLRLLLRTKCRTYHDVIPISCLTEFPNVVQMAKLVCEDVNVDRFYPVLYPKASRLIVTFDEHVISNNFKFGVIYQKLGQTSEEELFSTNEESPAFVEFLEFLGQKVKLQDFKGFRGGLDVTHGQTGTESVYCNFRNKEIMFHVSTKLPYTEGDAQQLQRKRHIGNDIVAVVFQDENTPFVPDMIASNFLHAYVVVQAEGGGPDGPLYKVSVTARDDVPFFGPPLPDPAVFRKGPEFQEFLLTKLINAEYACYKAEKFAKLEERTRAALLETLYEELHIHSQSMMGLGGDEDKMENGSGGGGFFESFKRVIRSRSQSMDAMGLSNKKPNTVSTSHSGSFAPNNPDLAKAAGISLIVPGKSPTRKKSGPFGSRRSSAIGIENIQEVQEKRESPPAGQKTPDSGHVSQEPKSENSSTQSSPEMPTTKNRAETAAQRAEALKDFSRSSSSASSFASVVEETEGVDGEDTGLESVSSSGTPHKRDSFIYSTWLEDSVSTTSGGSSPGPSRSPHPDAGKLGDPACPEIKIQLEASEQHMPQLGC
Sequence of human Rap1A (Glu63) (1st to 184th residues) (P62834 whole entry, looked up, the tested form may be a part): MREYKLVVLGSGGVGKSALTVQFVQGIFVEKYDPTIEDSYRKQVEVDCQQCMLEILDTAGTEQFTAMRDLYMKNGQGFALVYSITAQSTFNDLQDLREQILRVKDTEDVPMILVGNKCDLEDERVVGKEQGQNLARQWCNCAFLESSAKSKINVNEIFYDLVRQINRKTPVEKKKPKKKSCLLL
Sequence of human Ha-Ras (1st to 189th residues) (P01112 whole entry, looked up): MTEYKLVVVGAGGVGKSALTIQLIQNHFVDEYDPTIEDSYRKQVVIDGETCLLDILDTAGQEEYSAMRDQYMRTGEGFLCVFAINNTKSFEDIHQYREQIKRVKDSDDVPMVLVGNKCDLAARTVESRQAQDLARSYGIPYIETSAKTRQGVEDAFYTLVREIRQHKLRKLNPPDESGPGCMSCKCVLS
Sequence of human RhoA (1st to 193 residues) GST fusion protein (P61586 whole entry, the tested form may be a part): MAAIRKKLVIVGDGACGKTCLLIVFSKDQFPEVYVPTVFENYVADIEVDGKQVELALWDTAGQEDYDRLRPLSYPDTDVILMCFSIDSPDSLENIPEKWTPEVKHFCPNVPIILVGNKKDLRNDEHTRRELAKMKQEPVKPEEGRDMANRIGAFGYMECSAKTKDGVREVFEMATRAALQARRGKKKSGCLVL

EC16 (µg/ml), activation of Ran GTPase [1] [µg/mL] | Substance | Stimulation (times) of GTPase activity [2] [times] | Stimulation (times) of GTPase activity [3] [times] | Stimulation (times) of GTPase activity [4] [times] | Stimulation (times) of GTPase activity [5] [times]
300 | NF1-GDR(Ras GAP) (enzyme) |  |  |  | 
150 | p190C(Rho GAP) (enzyme) |  |  |  | 
130 | fusion protein of human GAP3 (75th to 663rd amino acid residues) and GST (from UniProt P47736 75-663) (enzyme) |  |  |  | 
 | fusion protein of human GAP3 (75th to 663rd amino acid residues) and GST | 0 | 10 | 0 | 7
